Data taken from paper PMC4176175, “Requirements for 5′dRP/AP lyase activity in Ku”.
Where a chain is given by its changes, count along the chain named.

Experiments:
Test in all cases: EMSA; 1 nM Ku, 1 nM DNA, 15 min; EMSA: 1 nM Ku with 1 nM radiolabeled 30 bp DNA, 15 min, no streptavidin/UDG; buffer, salt, pH and temperature not given in the material
Details in all cases: protein: recombinant;recombinant, tags: C-terminal His6;, copies: 1;1, label: 3' 32P-cordycepin on strand 1, 5' overhang 3 nt (GUG) on strand 1, 5' overhang 1 nt (T) on strand 2, paired by the added 3' cordycepin
[1] = molecular target: T1, yeast Ku70 WT;yeast Ku80 WT (Saccharomyces cerevisiae;Saccharomyces …, UniProt P32807;Q04437 1-602;1-629, |)
T1 sequence 1: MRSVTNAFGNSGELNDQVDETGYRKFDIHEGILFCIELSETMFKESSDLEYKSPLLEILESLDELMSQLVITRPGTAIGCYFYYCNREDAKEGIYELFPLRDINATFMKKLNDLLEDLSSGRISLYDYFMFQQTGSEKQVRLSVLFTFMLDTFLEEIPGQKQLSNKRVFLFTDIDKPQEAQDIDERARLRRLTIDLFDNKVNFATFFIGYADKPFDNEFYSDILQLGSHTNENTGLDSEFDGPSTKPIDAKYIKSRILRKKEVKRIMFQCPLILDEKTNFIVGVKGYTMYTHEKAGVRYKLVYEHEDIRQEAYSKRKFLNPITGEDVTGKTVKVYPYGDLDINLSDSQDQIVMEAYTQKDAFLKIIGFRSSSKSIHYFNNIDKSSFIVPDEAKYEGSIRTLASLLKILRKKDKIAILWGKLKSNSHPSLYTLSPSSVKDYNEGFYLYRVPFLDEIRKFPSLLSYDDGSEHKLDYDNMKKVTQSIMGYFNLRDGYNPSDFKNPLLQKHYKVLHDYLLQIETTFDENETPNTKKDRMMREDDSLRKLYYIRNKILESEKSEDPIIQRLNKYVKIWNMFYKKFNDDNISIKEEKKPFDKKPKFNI
T1 sequence 2: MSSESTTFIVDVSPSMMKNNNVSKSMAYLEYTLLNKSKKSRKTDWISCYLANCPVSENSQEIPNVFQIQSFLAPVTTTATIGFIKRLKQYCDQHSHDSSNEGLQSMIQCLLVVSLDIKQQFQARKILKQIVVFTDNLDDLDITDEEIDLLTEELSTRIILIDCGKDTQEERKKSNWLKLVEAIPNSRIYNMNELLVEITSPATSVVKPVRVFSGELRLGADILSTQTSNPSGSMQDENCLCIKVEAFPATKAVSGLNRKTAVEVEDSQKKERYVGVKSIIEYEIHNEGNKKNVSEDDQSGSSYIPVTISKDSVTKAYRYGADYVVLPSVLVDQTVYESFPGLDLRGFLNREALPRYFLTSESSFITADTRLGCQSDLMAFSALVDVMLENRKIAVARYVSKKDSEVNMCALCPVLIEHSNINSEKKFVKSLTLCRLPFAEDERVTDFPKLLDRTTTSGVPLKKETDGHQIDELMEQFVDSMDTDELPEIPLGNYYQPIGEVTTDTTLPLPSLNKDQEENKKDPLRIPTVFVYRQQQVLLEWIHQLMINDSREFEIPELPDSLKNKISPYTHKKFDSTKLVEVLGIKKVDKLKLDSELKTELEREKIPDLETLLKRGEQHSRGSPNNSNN

[2] = molecular target: T2, yeast Ku70 2A;yeast Ku80 WT (Saccharomyces cerevisiae;Saccharomyces …, UniProt P32807;Q04437 1-602;1-629, K25A;K161A|)
T2 sequence 1: T1 sequence 1 with K25A, K161A
T2 sequence 2: T1 sequence 2

[3] = molecular target: T3, Xenopus Ku70 WT;Xenopus Ku80 WT (Xenopus laevis;Xenopus laevis, UniProt Q9W626;Q6DDS9 1-611;1-726, |)
T3 sequence 1: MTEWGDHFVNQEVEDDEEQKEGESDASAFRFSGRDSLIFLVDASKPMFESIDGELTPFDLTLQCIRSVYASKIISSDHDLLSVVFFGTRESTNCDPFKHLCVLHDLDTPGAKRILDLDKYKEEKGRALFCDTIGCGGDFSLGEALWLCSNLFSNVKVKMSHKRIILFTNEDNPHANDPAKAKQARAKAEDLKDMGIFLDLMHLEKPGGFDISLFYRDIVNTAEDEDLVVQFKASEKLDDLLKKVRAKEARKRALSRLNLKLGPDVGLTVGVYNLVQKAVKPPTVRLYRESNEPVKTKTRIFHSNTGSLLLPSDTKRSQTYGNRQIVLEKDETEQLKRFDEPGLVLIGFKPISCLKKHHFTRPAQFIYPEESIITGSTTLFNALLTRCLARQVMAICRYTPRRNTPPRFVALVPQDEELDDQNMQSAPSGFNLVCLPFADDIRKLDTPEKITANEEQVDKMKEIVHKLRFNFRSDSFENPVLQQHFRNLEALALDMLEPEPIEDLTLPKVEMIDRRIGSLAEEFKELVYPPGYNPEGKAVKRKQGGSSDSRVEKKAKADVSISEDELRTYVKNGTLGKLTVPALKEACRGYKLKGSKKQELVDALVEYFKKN
T3 sequence 2: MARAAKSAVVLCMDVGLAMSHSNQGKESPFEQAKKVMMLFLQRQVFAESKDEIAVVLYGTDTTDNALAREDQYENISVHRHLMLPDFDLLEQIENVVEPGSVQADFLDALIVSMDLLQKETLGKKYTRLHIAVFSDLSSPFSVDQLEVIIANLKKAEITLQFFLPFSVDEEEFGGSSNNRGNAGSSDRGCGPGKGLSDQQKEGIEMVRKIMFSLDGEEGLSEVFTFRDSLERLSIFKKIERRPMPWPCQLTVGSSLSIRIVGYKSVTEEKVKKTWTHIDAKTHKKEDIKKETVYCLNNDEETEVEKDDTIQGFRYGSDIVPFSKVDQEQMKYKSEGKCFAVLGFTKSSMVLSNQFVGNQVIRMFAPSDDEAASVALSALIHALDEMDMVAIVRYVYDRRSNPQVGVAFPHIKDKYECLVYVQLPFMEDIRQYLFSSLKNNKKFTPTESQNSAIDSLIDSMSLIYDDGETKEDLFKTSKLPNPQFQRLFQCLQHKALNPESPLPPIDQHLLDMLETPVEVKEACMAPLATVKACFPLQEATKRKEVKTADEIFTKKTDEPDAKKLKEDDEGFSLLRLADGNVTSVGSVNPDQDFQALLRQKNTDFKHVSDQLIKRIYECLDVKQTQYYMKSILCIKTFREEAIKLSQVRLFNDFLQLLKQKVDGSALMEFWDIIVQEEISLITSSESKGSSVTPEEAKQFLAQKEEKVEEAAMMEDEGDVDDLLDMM

Measured: binding result

B1: 30 bp EMSA substrate (dsDNA)
DNA 1: GUGGAAATCAAACGTAAGTAGAATCCAAAGTCT
DNA 2: TAGACTTTGGATTCTACTTACGTTTGATTTC
modifications: deoxyuridine at position 2 of strand 1 (no UDG treatment for EMSA); 5' phosphate on strand 1; 5' biotin-TEG on strand 2
binds: all assays above
